Numbering of substitutions follows the chain as printed.
B1: F211-11H12 (antibody, V domains shown)
VH: DVQLQESGPGLVKPSQSLSLTCSVTGYSITSDYYWNWIRQFPGNKLEWMAYIGYDGTKNYNPSLKNRISITRDTSKNQFFLKLNSVTTDDTATYYCTRDRANWDDYFDYWGQGTTLTVSS
VL: DIVMSQSPSSLAVSVGEKVTMSCKSSQSLLNSRNQKNHLAWYQQKPGQSPKLLIYWASTRESGVPDRFTGDGSGTDFTLTISSVKAEDLAVYYCQQYYTYRTFGGGTKLEIK
B2: F211-9D1 (antibody, V domains shown)
VH: B1 VH with T57S
VL: B1 VL with T69S
B3: F211-10A9 (antibody, V domains shown)
VH: QIQLQQSGPELVKPGAPVKISCKASGYTFTDYYIHWVNQRPGQGLEWIGYIYPGNGHTVYNQKFKVRATLTADNPSSTAYLQLNSLTSEDSGVYFCAYDLFNYWGQGTLVTVSA
VL: DIVMTQSPSSLAMSVGQKVTMSCKSSQSLLNSDTQKNFLAWYQQKPGQSPKILVYFASTKESGVPDRFIGSGSGTDFTLTITSVQAEDLADYFCQQYYSIPLTFGAGTKLELK

What was measured:
[1] = biological target: T1, hemagglutinin of H1N1 A/California/06/2008 (influenza virus H1N1 …); test: dot blot, 4M urea; rHA (Imm. Techn.), dot 2
[2] = biological target: T2, hemagglutinin of H3N2 A/Hong Kong/8/1968 (influenza virus H3N2 A/Hong Kong/8/1968); test: dot blot, 4M urea; rHA (Imm. Techn.), dot 5
[3] = biological target: hemagglutinin of H3N2 A/Wisconsin/67/2005 (influenza virus H3N2 A/Wisconsin/67/2005); test: dot blot, 4M urea; rHA (Prot. Sc.), dot 4
[4] = biological target: hemagglutinin of H7N3/A/Turkey/Oregon/71 (influenza virus H7N3 A/Turkey/Oregon/71, UniProt P03458 19-560); test: Western blot; virus, eggs
[5] = biological target: hemagglutinin of H4N6 A/Duck/Czechoslovakia/56 (influenza virus H4N6 …, UniProt P19696 17-564); test: Western blot; virus, eggs
[6] = biological target: hemagglutinin of B/Massachusetts/2/2012 (influenza virus B/Massachusetts/2/2012); test: dot blot, 4M urea; inactivated virus (egg/NIBSC), dot 14
[7] = biological target: T3, hemagglutinin of H1N1 A/Puerto Rico/8/1934 (influenza virus H1N1 A/Puerto …, UniProt P03452 18-528); test: dot blot, 4M urea; virus (HEK293/NRC), dot 17
[8] = biological target: T3, hemagglutinin of H1N1 A/Puerto …; test: dot blot, 4M urea; rHA (Prot. Sc.), dot 1
[9] = biological target: T2, hemagglutinin of H3N2 A/Hong Kong/8/1968; test: dot blot, 4M urea; virus (HEK293/NRC), dot 19
[10] = biological target: T4, hemagglutinin of H3N2 A/Brisbane/10/2007 (influenza virus H3N2 A/Brisbane/10/2007); test: dot blot, 4M urea; rHA (BEI Res.), dot 6
T4 construct: rHA (BEI Resources)

[11] = biological target: hemagglutinin of B/Brisbane/60/2008 (influenza virus B/Brisbane/60/2008); test: dot blot, 4M urea; rHA (Prot. Sc.), dot 11
[12] = biological target: T1, hemagglutinin of H1N1 …; test: dot blot, 4M urea; inactivated virus (egg/NIBSC), dot 12
[13] = biological target: hemagglutinin of H3N2 A/Texas/50/2012 (influenza virus H3N2 A/Texas/50/2012); test: dot blot, 4M urea; inactivated virus (egg/NIBSC), dot 13
[14] = biological target: hemagglutinin of H9N2 A/Turkey/Wisconsin/1/66 (influenza virus H9N2 …, UniProt P03457 19-560); test: Western blot; virus, eggs
[15] = biological target: hemagglutinin of H2N2 A/Singapore/1/57 (influenza virus H2N2 A/Singapore/1/57, UniProt Q67333 16-562); test: Western blot; virus, eggs
[16] = biological target: hemagglutinin of H13N6 A/Gull/Maryland/704/77 (influenza virus H13N6 …, UniProt P13103 19-566); test: Western blot; virus, eggs
[17] = biological target: hemagglutinin of H8N4 A/Turkey/Ontario/6118/68 (influenza virus H8N4 …, UniProt P03456 16-565); test: Western blot; virus, eggs
[18] = biological target: hemagglutinin of H12N5 A/Duck/Alberta/60/76 (influenza virus H12N5 …, UniProt P03446 17-564); test: Western blot; virus, MDCK cells

Binder | signal intensity [1] | signal intensity [2] | signal intensity [3] | binding result [4] | binding result [5] | signal intensity [6] | signal intensity [7] | signal intensity [8] | signal intensity [9] | signal intensity [10] | signal intensity [11] | signal intensity [12] | signal intensity [13] | binding result [14] | binding result [15] | binding result [16] | binding result [17] | binding result [18]
B1 | 5120 arbitrary fluorescent units | 464 arbitrary fluorescent units | 176 arbitrary fluorescent units | no binding (tested: 2µg/ml) | no binding (tested: 2µg/ml) | 9930 arbitrary fluorescent units | 6540 arbitrary fluorescent units | 20300 arbitrary fluorescent units | 201 arbitrary fluorescent units | 280 arbitrary fluorescent units | 38500 arbitrary fluorescent units | 14400 arbitrary fluorescent units | 201 arbitrary fluorescent units | – | – | – | – | –
B2 | 5780 arbitrary fluorescent units | 651 arbitrary fluorescent units | 70 arbitrary fluorescent units | – | – | 10500 arbitrary fluorescent units | 7810 arbitrary fluorescent units | 21400 arbitrary fluorescent units | 108 arbitrary fluorescent units | 362 arbitrary fluorescent units | 41100 arbitrary fluorescent units | 17400 arbitrary fluorescent units | 238 arbitrary fluorescent units | – | – | – | – | –
B3 | 2780 arbitrary fluorescent units | 5670 arbitrary fluorescent units | 791 arbitrary fluorescent units | binds | binds | 240 arbitrary fluorescent units | 7450 arbitrary fluorescent units | 2520 arbitrary fluorescent units | 319 arbitrary fluorescent units | 11500 arbitrary fluorescent units | 25800 arbitrary fluorescent units | 227 arbitrary fluorescent units | 412 arbitrary fluorescent units | binds | binds | binds | binds | binds

From patent US20190352376A1 (NATIONAL RESEARCH COUNCIL OF CANADA, published 2019)
